Measured values: doi:10.1101/2020.04.27.064493 (bioRxiv, 2020)

B1: bovine DNMT1 RFTS domain (residues 349-594) (domain or fragment)
chain: PKCTECLQYLDDPELRYEQHPPDAVEEIQILTNERLSIFDANESGFESYEDLPQHKLTCFSVYCKRGHLCPIDTGLIEKDVELLFSGSAKPIYEDDPSPEGGINGKNFGPINEWWIAGFDGGEKALLGFSTSFAEYILMDPSPEYAPLFSVMQEKIYISKIVVEFLQSNPDSTYEDLINKIETTVPPCMLNLNRFTEDSLLRHAQFVVEQVESYDRAGDSDEQPIFLSPCMRDLIKLAGVTLGKRR

Experiments:
[1] = biological target: B1; experiment: crystal structure
G76C-mutated ubiquitin = G76C-mutated ubiquitin (UniProt P0CG48 1-76, G76C); experiment: crystal structure

binding result [1] | binding result (G76C-mutated ubiquitin) | Binder
binds | binds | H3_(1-24)K9me3/K18C/K23C peptide (trimethyl-lysine at K9) peptide: not shown
 | binds | B1
